Reference: the supplement of paper PMC12042874
± gives the uncertainty stated by the source.

Test: amyloid nucleation score (Sup35N fusion, yeast selection) (log enrichment); library NNK1; higher = more nucleation; inactive = no reads after selection
Outline: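 Output and input plasmid inserts were sequenced by Illumina after psi-negative yeast carrying Sup35N fused to peptides of 20 random codons had been induced 24 hours with 100 μM copper sulfate and grown 7 days at 30°C on medium lacking adenine and uracil. The nucleation score is the DiMSum log enrichment of output over input reads, centred on the mode score of non-aggregating sequences. Sequences with under 100 input reads were excluded.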

Substance | amyloid nucleation score
RLCAQ | 0.592 ± 0.81
RLCEFSSKGASL | -0.115 ± 1.1
RLDRWKHEMTAVSRCHKARM | 1.24 ± 0.74
RLFDVMTITYTRSLSSPSCD | 0.405 ± 1.2
RLFNTAQGSHSWH | 1.56 ± 0.71
RLFTYYTVRNPYVADKFYNR | 5.174 ± 0.051
RLGRGKMKGWLSMLCRDCAL | -0.918 ± 0.65
RLICGPWNYCCQYKYNHLVL | 4 ± 0.12
RLISTGADCEVRISHIRSRN | 0.594 ± 0.48
RLLSPLY | -0.773 ± 2.1
RLNKWWRTKDSYTGL | 0.258 ± 0.41
RLNRVSVLLFPTFDLPPFLE | 2.68 ± 0.098
RLRQTGVRLRSQEMFVGEVY | -0.378 ± 0.45
RLSIS | inactive
RLSQLVLVVWTAQGC | -0.006 ± 0.63
RLSTAMRVEVIGVSCSDARA | -0.033 ± 0.28
RLTNELLGVSIRLTSWFTFH | 0.606 ± 0.48
RLVGGPRRASITKNWYTEK | -0.649 ± 0.73
RLVLSGWNVTVNSILYQGFI | 6.078 ± 0.06
RLVPVACNPSLNKAVENSFF | 0.056 ± 1.5
RLVRCMGTVIINQSHSCDRG | 0.607 ± 0.64
RLYFRELSWSGLCMFELVRI | -0.117 ± 0.4
RLYKFTGF | 1.09 ± 0.37
RLYLDMSIRPSWASVRFSFG | -1.19 ± 1.9
RLYSDAQ | -0.003 ± 0.71
RMDFMWLVKI | 4.57 ± 0.056

Substance | amyloid nucleation score
RMGNQYPRSVKWT | -0.029 ± 0.33
RMKLTQLGYSRGNDSLSVLL | -0.813 ± 1.4
RMLIYVQFTRRDKVSNPLM | -0.685 ± 0.33
RMLQHLVFLAGLNDVFAKGF | 1.43 ± 0.15
RMNGLSGRLSTAWQFMYMWC | -0.153 ± 0.34
RMSCAHDDHPIYWSCT | -0.622 ± 0.98
RNGSSMGPLSM | -0.258 ± 0.71
RNIRIR | -0.534 ± 0.25
RNKNFPSKGDLNQGGRNNIK | 0.877 ± 0.4
RNLCTWVNRKELLSSEYLLF | -0.249 ± 0.31
RNLIGLV | 0.318 ± 0.68
RNLLVEFSLVSKWGLSSSWR | 0.557 ± 0.51
RNMKPIYFLRPTISVNRSNR | 0.594 ± 0.85
RNQKGIL | -0.042 ± 0.23
RNWYKW | inactive
RPDALGN | -0.97 ± 0.64
RPFSDLSWTLDRVWHRPCWY | 1.04 ± 0.6
RPILLSSLPIHSERMWSTSL | -0.257 ± 1.4
RPNLDWFLRLGFSYKCDDRR | 4.56 ± 0.13
RPPCCKWRDRRCTWGIS | 0.017 ± 0.51
RPSWFLTADDRVWFSSTGRG | 0.053 ± 1.4
RQIVEELTSGIVGSLEV | -0.48 ± 0.57
RQMLLPGMRVGKRC | 0.144 ± 0.36
RQSSSSHSMNSGQNILPFRL | 0.279 ± 0.93
RRCRVEFLYVHSDYM | 3.79 ± 0.097
RRHLGRCTRSKLFNPLR | 0.101 ± 0.54

Substance | amyloid nucleation score
RRKLACCCRFSVLSSGCVQN | -0.668 ± 1.7
RRLMNMLEGGHMGG | 0.083 ± 0.29
RRLQSNLSSCEASNPDTLRC | 0.774 ± 0.36
RRQYFN | -0.855 ± 0.45
RRRFTIGASVCFRQCFYCQG | -0.491 ± 1.6
RRRLPGSSPISLGYFSSSLA | -0.509 ± 1.7
RRTRKGWIMWPGGVDNHGNY | -0.313 ± 1.3
RRTWNWPTWIMRSRRREGHG | 0.368 ± 0.42
RSCKLWY | -0.204 ± 0.85
RSCLMSC | 0.141 ± 0.54
RSEATLYRRSSDGVKNVLQK | -0.535 ± 0.32
RSFFPSNRDTTRPQATFVAR | 1.31 ± 0.68
RSFIVCSRNRVGLTNFRCLE | 0.364 ± 0.84
RSFSCLSQVFTYVPLTVRET | 0.22 ± 0.6
RSHQSQGMPSLFNLSLVLFY | 6.489 ± 0.064
RSLALEKLCSWSV | -1.38 ± 2.7
RSLQDGILKTKNCL | 0.659 ± 0.24
RSNFELSLSALKVMLFVGHK | inactive
RSQFWHFQWWTKSHNIMGLD | 0.803 ± 1.1
RSQSCLVYYWTRFRPVYRFA | 0.671 ± 0.29
RSRVLRMLFPAGEDYQLHMV | 0.8 ± 0.65
RSSSHYRSDERPIDFVNEQE | -1.16 ± 0.77
RSTKKFSPQDTPHSLHVKKG | 0.574 ± 0.42
RSVNSETQKFMRWFMRVWTP | -0.332 ± 0.33
RSVRCVLLVAINRVMLG | 0.52 ± 0.67
RSWLLIKLTSQHASKMLVTG | 0.569 ± 0.46

Substance | amyloid nucleation score
RSYGLAFGYFHNHVRSFARV | -0.735 ± 0.81
RTGYPGSEVMGTRSFLSRNS | -0.385 ± 1.9
RTVPTRWACVLVSGVWRYGA | 0.504 ± 0.46
RTWAEWCLVLVSGFGSGAML | 0.086 ± 0.54
RTYKINGQSKFSLACITTLS | -0.125 ± 0.7
RVIGTGYECTNATEDSLSYL | inactive
RVKVGSRCVSQFLSTLVQRS | -0.266 ± 1.4
RVPAFRY | inactive
RVRNMPTPSLSHMNLFSSVG | -0.038 ± 0.35
RVSAMNEGMRIVCWLVFFRP | -0.166 ± 0.9
RVTYETNGLWGKNVRYDIVN | 0.305 ± 0.34
RVVVQNI | 1.18 ± 0.97
RVYENNIY | -1.05 ± 1.7
RWDSRQGFSRASQVARRADS | -0.391 ± 0.39
RWGRESRLRV | -0.122 ± 0.29
RWNRTRFPHLYCKIGEKCIY | 0.312 ± 0.33
RWRFEVIKVTSFYMSFLKSA | 0.234 ± 0.47
RWSRI | -0.253 ± 0.23
RWSVSINWTRSEEHDFRNCV | 1.37 ± 0.43
RWSYA | 0.981 ± 0.58
RWVTSLRPNLDLS | 0.869 ± 0.52
RWVVSVPISCARACFSG | 0.579 ± 0.73
RWWSWCSFTSSIFYCYLLCA | 2.2 ± 0.13
RYARWYTQCWTKQRVWRPLD | 0.984 ± 0.3
RYCCHMSRSTYNIICCRWTN | inactive
RYCNKTFSTLSPVHLF | 1.11 ± 0.97

Substance | amyloid nucleation score
RYKIQPAIPVQEGLMGLSDP | 0.282 ± 0.43
RYLFLDWSSESRCPFAASNE | 0.104 ± 0.84
RYMVSCRGGGKWQPPLFDMR | 1.23 ± 0.66
RYRNVVRSFFNEYRLCPGIE | -0.235 ± 1.4
RYRPSVCRS | 0.872 ± 0.54
RYRRATTQFAKGHCRSLSFK | 0.91 ± 0.47
RYVGLGGFM | -0.655 ± 0.46
RYVHSAQLFVNATPHRLRLV | 0.578 ± 0.34
RYWFLSYFHPANNYDDWKNC | -1.03 ± 1.2
SACFYTATVFFMYNSFGSNV | 5.611 ± 0.055
SADSGSQSEEQSKVMRMVYG | -1.64 ± 0.83
SAFFYDSFYRMRLSLFIGYG | 0.63 ± 0.55
SAIYRRWAHRAQSAWQVESR | 1.94 ± 0.7
SALLVMPRVAVSSTMVGKAT | 0.938 ± 0.45
SANRA | 0.62 ± 0.41
SASDVWCLQMLRSVYFPPQG | inactive
SASLS | 0.396 ± 0.71
SASYNFTSCFKFLRRKIVIK | 0.196 ± 0.24
SATPGRGY | 0.851 ± 0.24
SAWCRSIM | 0.952 ± 0.27
SCEGGCAGSCGVP | -0.641 ± 1.5
SCFFKKMDMDT | 0.436 ± 0.69
SCFLC | 1.4 ± 0.18
SCLNVNVMLYSWESVGPKSG | inactive
